# Measurements published in patent US9744222B2, “Peptide for vaccine” (Circassia Limited, priority 2007, dated 2017).
# Assays:
# [1] = Solubility pre-screen of peptides; conditions: pre-screened for solubility in an aqueous, acidic milieu; YES/NO
# [2] = Precipitation in aqueous solution of the binding assay; assay type: physicochemical; conditions: lowest concentration at which an insoluble white precipitate is seen in the aqueous solution of the binding assay
# Text: (§1) This is a characteristic of promiscuous HLA-DRB1* binders.
# DRB1*0701 = DRB1*0701 (Homo sapiens, UniProt P01903+P01911, A100R/A102G/A103Q/D57E/D86V/E43K/F76Y/K127E/L162R/M171V/P40G/Q125H/Q99D/R33Q/R42Y/R54Q/S133A/S66F/T210M/V115G/Y107V/Y59L/Y89S); experiment: Competitive MHC class II binding assay; conditions: control peptide Influenza haemagglutinin 307-319
# DQA1*0102/DQB1*0602 = DQA1*0102/DQB1*0602 (Homo sapiens, UniProt P01909+P01920, A157G/A45G/C70R/E118A/E183D/E77G/F83G/G63E/H151Q/H199R/H252R/H253Q/I129T/I235V/I88M/INS77G/K197Q/L117V/L119F/L178F/L71W/L74F/L85Q/L91A/L98M/N214S/P87R/Q116E/Q76K/R102G/R240Q/R75S/R78G/S102Y/S185I/S41F/S97I/T121G/T122I/T172A/T86R/V229M/V68A/V73E/Y34C/Y41F/Y58L); experiment: Competitive MHC class II binding assay; conditions: control peptide Human Insulin B 1-15
# Experimental: as §1
# In addition, to identify lower affinity binders, the assay was also carried out under less stringent conditions. All the Der p binding peptides were seen to have a high ratio when tested against this allotype, showing they were low affinity binders compared to the control peptide. The DQA1*0102/DQB1*0602 binding assay uses a peptide from the B-chain of human insulin which is of lower affinity compared to those used in the DR assays. This dictates that the DQ assay is very sensitive and tends to produce very low ratio values for the strongest binders to this MHC Class II allotype. This sensitivity also accounts for the relatively higher number of DQ binding peptides within the panel screened.
# DRB1*1501 = DRB1*1501 (Homo sapiens, UniProt P01903+P01911); experiment: Competitive MHC class II binding assay; conditions: control peptide Human myelin basic protein 85-99
# DRB1*1101 = DRB1*1101 (Homo sapiens, UniProt P01903+P01911, A100R/A169T/A87E/I96F/K41T/L162R/M171V/P40S/Q125H/Q178H/Q39Y/Q99D/R42S/S66Y/T262R/V115G/W38E); experiment: Competitive MHC class II binding assay; conditions: control peptide Influenza haemagglutinin 307-319
# DRB1*0301 = DRB1*0301 (Homo sapiens, UniProt P01903+P01911, A100K/A102G/A103R/A169T/F55Y/I96L/K41T/L162R/M171V/P40S/Q125H/Q178H/Q39Y/R42S/S66N/T106N/T262R/W38E/Y61H); experiment: Competitive MHC class II binding assay; conditions: control peptide Myco. tuberculosis/leprae hsp 65 2-16
# Text: as §1
# [3] = tested on: human MHC class II allotypes; experiment: Competitive MHC class II binding assay, all allotypes; conditions: competition assay, any allotype
# Text: as §1
# This is of significance as purities were seen to vary from 60-90%. This would have a considerable effect on the ability of a peptide to compete if it is relatively impure. […] Therefore, if purity is taken into consideration, they may in fact have an equivalent affinity to a peptide of a higher purity.
Sequence,Solubility test [1],Precipitation in assay [2],"Relative binding, ratio of own IC50 to that of the control peptide, DRB1*0701 (DRB1*0701)","Relative binding, ratio of own IC50 to that of the control peptide, DQA1*0102 QB1*0602 (DQA1*0102/DQB1*0602)","Relative binding, ratio of own IC50 to that of the control peptide, DRB1*1501 (DRB1*1501)","Relative binding, ratio of own IC50 to that of the control peptide, DRB1*1101 (DRB1*1101)","Relative binding, ratio of own IC50 to that of the control peptide, DRB1*0301 (DRB1*0301)",MHC Class II binding (in words) [3]
CIIHRGKPFQLEA [HDM20],YES,None,1.1,2.37,242.11,28,–,–
DGLEVDVPGIDPNACH [HDM23A],–,None,–,0.76,–,–,347,low affinity binding
